Results as given in patent US20140066368A1.
Bridge positions count the residues as written; N and C are the ends. Ends that are not written are not given here.

Target: amylin receptor (membrane-bound, rat basal forebrain membranes containing the nucleus accumbens and surrounding regions) (rat)
Assay: competition with ^125I Bolton-Hunter amylin on rat basal forebrain membranes, filtration

Molecule	IC50 [pM]
^1Ala-h-Amylin (peptide)	148
^1Ser-h-Amylin (peptide)	33
^28Pro-h-Amylin (peptide)	15
^29Pro-h-Amylin (peptide)	64
KCNTATCATQRLANFLVHSSNNFGPILPSTNVGSNTY [^25,28Pro-h-Amylin]	26
CNTATCATQRLANFLVHSSNNFGPILPSTNVGSNTY [des-^1Lys^25,28Pro-h-Amylin]	85
KCNTATCATQRLANFLVRSSNNFGPILPSTNVGSNTY [^18Arg^25,28Pro-h-Amylin]	32
CNTATCATQRLANFLVRSSNNFGPILPSTNVGSNTY [des-^1Lys^18Arg^25,28Pro-h-Amylin]	82
KCNTATCATQRLANFLVRSSNNFGPILPPTNVGSNTY [^18Arg^25,28,29Pro-h-Amylin]	21
CNTATCATQRLANFLVRSSNNFGPILPPTNVGSNTY [des-^1Lys^18Arg^25,28,29Pro-h-Amylin]	21
KCNTATCATQRLANFLVHSSNNFGPILPPTNVGSNTY-NH2 (disulfide 2-7) [^25,28,29Pro-h-Amylin]	10
CNTATCATQRLANFLVHSSNNFGPILPPTNVGSNTY [des-^1Lys^25,28,29Pro-h-Amylin]	14
KCNTATCATQRLANFLVHSSNNFGPVLPPTNVGSNTY [^25Pro^26Val^28,29Pro-h-Amylin]	18
KDNTATKATQRLANFLVHSSNNFGAILSSTNVGSNTY (lactam 2-7; ends not checked) [^2,7Cyclo-[^2Asp,^7Lys]-h-Amylin]	310
